Test results reported in CN114790240A (UNIV ZHENGZHOU; UNIV HENAN AGRICULTURAL, dated 2022).

B1: 单克隆抗体9D4 (antibody, V domains shown)
VH: QVHLQQSGPELVKPGASVKISCKSSGYALTDYYINWVKQRPGQGLEWIGWIFPGNDYTYFNEKFKDKATLTLDKSSRTAYMLLSSLTTEDSAVYFCARYGDGNYVYFDYWGQGTSLTVSS
VL: ETVLIQSPALMAASPGEKVTITCSVSSSISSSNLHWYQQKSGNSPKPWIYGTSNLASGVPVRFSGSGSGTSYSLTISSMEAEDAATYYCQQWSSYPLTFGAGTKLELK
B2: 单克隆抗体8H9 (antibody, V domains shown)
VH: QIQLVQSGPELKKPGETVKISCKASGYTFTTYGMSWVKQTPGKGLKWMGWINTYSGVPTYADDFKGRFAFSLETSASTASLQINNLKNEDTATYFCARYDPTAPDYAMDYWGQGTSVTVSS
VL: NIVMTQSPKSMSMSVGERVTLSCKASENVGTYVSWYQQKPEQSPKLLIYGASNRYTGVPDRFTGSGSATDFTLTISSVQAEDLADYHCGQSYIYPLTFGAGTNLELK

Experiments:
[1] = target: 重组RBD蛋白 (SARS-CoV-2 RBD蛋白) (SARS-CoV-2, UniProt P0DTC2 331-524)
SARS-CoV-2野生株假病毒 (刺突蛋白) = SARS-CoV-2野生株假病毒 (刺突蛋白) (SARS-CoV-2, UniProt P0DTC2 14-1273); assay: cell-based or functional assay

Binder	EC50 [1]	假病毒中和活性IC50 (SARS-CoV-2野生株假病毒 (刺突蛋白))
B1	0.0242 µg/mL	112 ng/mL
B2	0.0251 µg/mL	33 ng/mL
